# In patent US20070212341A1, “Method for Preparing Active Kinases Containing Ph Domains” (priority 2004, published 2007):
# B1: PDK1-activated Akt1ΔPH: truncated Akt1 protein (amino acids 107-481, GST tag) without PH domain, activated by coexpression with truncated PDK1 in SF9 cells (protein)
# chain: ADGLKKQEEEEMDFRSGSPSDNSGAEEMEVSLAKPKHRVTMNEFEYLKLLGKGTFGKVILVKEKATGRYYAMKILKKEVIVAKDEVAHTLTENRVLQNSRHPFLTALKYSFQTHDRLCFVMEYANGGELFFHLSRERVFSEDRARFYGAEIVSALDYLHSEKNVVYRDLKLENLMLDKDGHIKITDFGLCKEGIKDGATMKTFCGTPEYLAPEVLEDNDYGRAVDWWGLGVVMYEMMCGRLPFYNQDHEKLFELILMEEIRFPRTLGPEAKSLLSGLLKKDPKQRLGGGSEDAKEIMQHRFFAGIVWQHVYEKKLSPPFKPQVTSETDTRYFDEEFTAQMITITPPDQDDSMECVDSERRPHFPQFSYSASGTA
# modifications: phosphorylated at threonine 308 and serine 473, as the filing says of the active form
# Test system: histone 2B
# Assay: Kinase activity measurement (histone 2B phosphorylation, [33P]ATP flashplate)
# Format: biochemical
# Description: Another possibility of detecting the enzymic activity of Akt is that of incubating 100 ng of Akt, at 30° C. for 80 min, with 100 ng of histone 2B in a buffer composed of 50 mM Hepes (pH 7.5), 3 mM MgCl2 and 3 mM MnCl2, 3 μM sodium vanadate, 1 mM DTT, 1% DMSO, 100 nM ATP and 0.16 nM [^33P]-ATP. After stopping the reaction with phosphoric acid and washing with water, the incorporated cpm [counts per minute] are then determined, in a flashplate (NEN) in a Wallac Trilux measuring instrument, as a measure of the phosphorylation of the histone 2B. In this measuring instrument, the quantity of light which was generated from the radioactive decay by the scintillation gel present in the wells is measured quantitatively. It is a direct measure of the degree of phosphorylation of the Akt substrate employed.
# In order to measure the kinase activity of truncated Akt1 (Akt1ΔPH) as well as of native Akt1, in each case 100 ng of Akt were incubated, at 30° C. for 80 min, with 100 ng of histone 2B in a buffer comprising 50 mM Hepes, pH 7.5, 3 mM MgCl2 and 3 mM MnCl2, 3 μM sodium vanadate, 1 mM DTT, 1% DMSO, 100 nM ATP and 0.16 nM [^33P]ATP. After the reaction had been stopped with phosphoric acid and the wells had been washed with water, the incorporated […], in a Wallac Trilux measuring instrument, as a measure of the histone 2B phosphorylation. In this measuring instrument, the quantity of light which was generated from the radioactive decay by the scintillation gel which was present in the wells was measured quantitatively. It is a direct measure of the degree of the phosphorylation of the Akt substrate employed.
# Commercially obtainable wild-type Akt1 protein (Upstate Biochemicals, Charlottsville, Va., USA), which was likewise expressed in SF9 cells using the baculovirus system and then purified, was also used (results of the activity measurement in FIG. 1a, left-hand column).
# The activity of an Akt derivative, which was expressed using the present method and obtained as an active kinase derivative, was compared with the activity of a commercially obtainable Akt1 enzyme (Upstate, Charlottsville, Va., USA). The activity of the commercially obtainable enzyme was obtained by expressing the enzyme, which contained the PH domain, in the baculovirus system and then purifying it. The enzyme was subsequently incubated with PDK1 in the presence of phosphatidylinositol […] lipid vesicles in order to phosphorylate Akt1 at threonine 308. After that, the activated Akt enzyme was separated chromatographically in order to separate it off from the activating PDK1 kinase. The enzyme activities of the two kinases were measured as described in Ex. 4.
# [1] = FIG. 1a, 100 ng Akt, 100 ng histone 2B, 30° C., 80 min, expressed in SF9 cells
molecule,measurement,setting,value
B1,kinase activity compared with commercially obtainable native Akt1 activated by subsequent phosphorylation by PDK1 in the presence of lipid vesicles,"Ex. 5, measured as described in Ex. 4",at least the same activity
same,kinase activity (histone 2B phosphorylation) compared with Akt1ΔPH not activated by coinfection with PDK1-encoding baculoviruses,[1],markedly higher activity
same,kinase activity (histone 2B phosphorylation) compared with Akt kinase derivative containing the PH domain with threonine 308 and serine 473 replaced with aspartic acid,[1],markedly higher activity
same,kinase activity (histone 2B phosphorylation) compared with commercially obtainable wild-type Akt1 not activated by coinfection with PDK1-encoding baculoviruses,"FIG. 1b, Ex. 4b, measured as in Ex. 4a",markedly higher activity
